# According to the RNAGym collection of RNA variant scans (doi:10.1073/pnas.2313332121):
# This sample holds only a part of the variants without activity.
# B1: TPR 5TU (parent)
# chain: GGAUCUUCUCGAUCUAACAAAAAAGACAAAUCUGCCACAAAGCUUGAGAGCAUCUUCGGAUGCAGAGGCGGCAGCCUUCGGUGGCGCGAUAGCGCCAACGUUCUCAACUAUGACACGCAAAACGCGUGCUCCGUUGAAUGGAGUUUAUCAUG
# Variants of: B1
# Assay: polymerase ribozyme fitness, log enrichment relative to wild type (log ratio); higher = more active; in vitro selection for triplet polymerase activity
# Summary of the method: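 Libraries of mutants in each subunit of a heterodimeric triplet polymerase ribozyme were generated by PCR and transcribed. In triplicate, each went through one in vitro selection round: annealing with biotinylated primer, partner subunit and triplets; frozen incubation at −7 °C; gel excision of extended constructs; streptavidin-bead capture; RT-PCR. Fitness, taken from Illumina sequencing of input and output libraries, is the logarithm of a genotype's enrichment over wild-type enrichment, averaged across replicates with inverse-variance weights. The logarithm is base 2, and genotypes needed ≥10 input reads and ≥1 read per output to be kept.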
row,Variant,polymerase ribozyme fitness (log ratio)
1,G59C C96U,0.681
2,G59U U82A C93A A142C,≤ -4.2
3,G59U G126A,0.622
4,U61A C103U,-1.31
5,G59A G92A G128A,-4.02
6,G58U G83U C118U A137U,≤ -4.2
7,G65A G124U,-1.24
8,A66G A97U,≤ -4.2
9,G59A G133U G140C,-3.69
10,C63G A73G G94A G136A,-0.0432
11,U61A C99U,-2.69
12,A60C C85U A119C G124A,-1.25
13,G58U G84A,-0.866
14,G59A U77C,-3.69
15,U61A U102C U111G A115G C123A U139G,≤ -4.2
16,U61G C105U A115G A147C G152U,≤ -4.2
17,U61A A106U,-2.41
18,U61A C87U A147C,-3.49
19,A60G G83A A98G,0.0303
20,A60G C93U C95A U145A,-1.82
21,A60G C63U G94A C114U,-2.5

row,Variant,polymerase ribozyme fitness (log ratio)
1,G59A C96G,-1.1
2,U61A G62A,-1.48
3,U61G C72U,-1.45
4,A64C G84A G128A,≤ -4.2
5,C63U C93A,-3.69
6,C63A C85U,-0.129
7,G58U G68A U148G,≤ -4.2
8,G59A G83C,-0.954
9,G59A G86U A97U C108G C116G G143C,≤ -4.2
10,G59C C85A C95U A137C,≤ -4.2
11,U61A C149U,-1.63
12,G59U C69G C95U C116G,-1.81
13,A60U G94C,-1.12
14,G62C A64G G83C U102G C114U U127G,≤ -4.2
15,A64U A66G U77C C96G C103G C116A,≤ -4.2
16,A60C G67U C76A C96U A107G C125U,≤ -4.2
17,G58U C75G G81A G92U A142G U144A,≤ -4.2
18,A60G C85U,-0.323
19,A64G G86U U130C,≤ -4.2
20,A66C U134C,≤ -4.2
21,G59A A150U,0.933

row,Variant,polymerase ribozyme fitness (log ratio)
1,A60G U102C,0.0901
2,G62U C103U,-0.754
3,U61A G84A U134A,-3.68
4,G59C G141U,-0.299
5,A64C G83C U139C A150C G152U,≤ -4.2
6,G59C C79A C93U,≤ -4.2
7,G65U G84U G88A,≤ -4.2
8,G59A U82G G117U,0.479
9,C63U C79U G88C U90G C95A C99U A107U,≤ -4.2
10,A64U C93G C114G,≤ -4.2
11,G59U C76U G83U U102G C123A,≤ -4.2
12,A60C G83A C85U U101G,-3.16
13,G59A C79A U82A C96A,-3.85
14,G59U C96G G133C A137C,≤ -4.2
15,U61A A89C A106C U148A,≤ -4.2
16,G59A A66C G84A A89U,≤ -4.2
17,G65C C93A A97U C108U U109C,≤ -4.2
18,U61A A64C G68U G86C,≤ -4.2
19,C63U G83C C96U C105G G117U,-2.06
20,A60G U144G,1.35
21,G59C G81U C95U G141A,-3.32

row,Variant,polymerase ribozyme fitness (log ratio)
1,C63A C85G U134A,-4.18
2,C63U C99G,-1.04
3,G59C G124U,-0.228
4,A64U C103G U134G G141C,≤ -4.2
5,G58U G84U A113G U139G,-2.95
6,A64C C85G G140A,≤ -4.2
7,A66G A73C C85G A107U,≤ -4.2
8,A66C A106G U144G,≤ -4.2
9,G59A A60G U134C,-0.132
10,G65C G92A A137C G141C,≤ -4.2
11,C63G G70A,-3.15
12,A60G G83C,-0.826
13,A60G G83A,-1.4
14,G59A A89G,-1.1
15,A60G A113G C114U U135A,-3.05
16,A60U G84C C123G,-3.24
17,G65A C96U,-1.03
18,G58U U61A U135A,-1.67
19,C63U G83C C85G C105A A110C,≤ -4.2
20,A60U A98U,-0.598
21,G58U G71A A91U G92A G126A G133U,≤ -4.2
